Data taken from the supplement of paper PMC11246515.
± gives the standard deviation of the averaged measurements.

Experiment: total protein half-life in vivo (active degradation + dilution); higher = more stable protein
[1] = E. coli NCM3722 delta-clpP delta-lon delta-hslV, growth: N-lim chemostat, doubling time 6 h
[2] = E. coli NCM3722 delta-clpP, growth: N-lim chemostat, doubling time 6 h
[3] = E. coli NCM3722 delta-lon, growth: N-lim chemostat, doubling time 6 h
[4] = E. coli NCM3722 delta-smpB, growth: N-lim chemostat, doubling time 6 h
[5] = wild type E. coli NCM3722, growth: C-lim chemostat, doubling time 6 h
[6] = wild type E. coli NCM3722, growth: C-lim chemostat, doubling time 12 h
[7] = wild type E. coli NCM3722, growth: N-lim chemostat, doubling time 6 h
[8] = wild type E. coli NCM3722, growth: P-lim chemostat, doubling time 6 h
[9] = wild type E. coli NCM3722, growth: P-lim chemostat, doubling time 12 h
[10] = E. coli NCM3722 delta-hslV, growth: N-lim chemostat, doubling time 6 h
[11] = wild type E. coli NCM3722, growth: C-lim chemostat, doubling time 3 h
[12] = wild type E. coli NCM3722, growth: N-lim chemostat, doubling time 12 h

Row | Sequence | total protein half-life in vivo [1] [h] | total protein half-life in vivo [2] [h] | total protein half-life in vivo [3] [h] | total protein half-life in vivo [4] [h] | total protein half-life in vivo [5] [h] | total protein half-life in vivo [6] [h] | total protein half-life in vivo [7] [h] | total protein half-life in vivo [8] [h] | total protein half-life in vivo [9] [h] | total protein half-life in vivo [10] [h] | total protein half-life in vivo [11] [h] | total protein half-life in vivo [12] [h]
1 | MEKKLPRIKALLTPGEVAKRSGVAVSALHFYESKGLITSIRNSGNQRRYKRDVLRYVAIIKIAQRIGIPLATIGEAFGVLPEGHTLSAKEWKQLSSQWREELDRRIHTLVALRDELDGCIGCGCLSRSDCPLRNPGDRLGEEGTGARLLEDEQN [P0ACS2] | 4.33 ± 0.31 | 1.34 | 2.45 | 1.49 | 2.35 | 3.19 ± 0.38 | 1.33 |  |  |  |  | 
2 | MKITLLVTLLFGLVFLTTVGAAERTLTPQQQRMTSCNQQATAQALKGDARKTYMSDCLKNSKSAPGEKSLTPQQQKMRECNNQATQQSLKGDDRNKFMSACLKKAA [P0AFM4] | 6.55 | 5.82 ± 1.1 |  |  |  | 6.86 ± 1.4 |  | 5.5 ± 1.8 | 12.8 ± 2.9 |  |  | 
3 | MATDTLTHATAHAHEHGHHDAGGTKIFGFWIYLMSDCILFSILFATYAVLVNGTAGGPTGKDIFELPFVLVETFLLLFSSITYGMAAIAMYKNNKSQVISWLALTWLFGAGFIGMEIYEFHHLIVNGMGPDRSGFLSAFFALVGTHGLHVTSGLIWMAVLMVQIARRGLTSTNRTRIMCLSLFWHFLDVVWICVFTVVYLMGAM [P0ABJ3] |  |  |  |  |  | 13.9 |  |  |  |  |  | 
4 | MQNSALKAWLDSSYLSGANQSWIEQLYEDFLTDPDSVDANWRSTFQQLPGTGVKPDQFHSQTREYFRRLAKDASRYSSTISDPDTNVKQVKVLQLINAYRFRGHQHANLDPLGLWQQDKVADLDPSFHDLTEADFQETFNVGSFASGKETMKLGELLEALKQTYCGPIGAEYMHITSTEEKRWIQQRIESGRATFNSEEKKRFLSELTAAEGLERYLGAKFPGAKRFSLEGGDALIPMLKEMIRHAGNSGTREVVLGMAHRGRLNVLVNVLGKKPQDLFDEFAGKHKEHLGTGDVKYHMGFSSDFQTDGGLVHLALAFNPSHLEIVSPVVIGSVRARLDRLDEPSSNKVLPITIHGDAAVTGQGVVQETLNMSKARGYEVGGTVRIVINNQVGFTTSNPLDARSTPYCTDIGKMVQAPIFHVNADDPEAVAFVTRLALDFRNTFKRDVFIDLVCYRRHGHNEADEPSATQPLMYQKIKKHPTPRKIYADKLEQEKVATLEDATEMVNLYRDALDAGDCVVAEWRPMNMHSFTWSPYLNHEWDEEYPNKVEMKRLQELAKRISTVPEAVEMQSRVAKIYGDRQAMAAGEKLFDWGGAENLAYATLVDEGIPVRLSGEDSGRGTFFHRHAVIHNQSNGSTYTPLQHIHNGQGAFRVWDSVLSEEAVLAFEYGYATAEPRTLTIWEAQFGDFANGAQVVIDQFISSGEQKWGRMCGLVMLLPHGYEGQGPEHSSARLERYLQLCAEQNMQVCVPSTPAQVYHMLRRQALRGMRRPLVVMSPKSLLRHPLAVSSLEELANGTFLPAIGEIDELDPKGVKRVVMCSGKVYYDLLEQRRKNNQHDVAIVRIEQLYPFPHKAMQEVLQQFAHVKDFVWCQEEPLNQGAWYCSQHHFREVIPFGASLRYAGRPASASPAVGYMSVHQKQQQDLVNDALNVE [P0AFG3] | 5.96 ± 0.15 | 6.43 ± 0.87 | 5.36 ± 0.23 | 4.99 ± 0.18 | 5.13 ± 0.19 | 8.677 ± 0.03 | 5.377 ± 0.027 | 4.72 ± 0.17 | 9.32 ± 0.68 | 5.92 ± 0.14 | 2.51 ± 0.028 | 10.1 ± 0.89
5 | MADITLISGSTLGGAEYVAEHLAEKLEEAGFTTETLHGPLLEDLPASGIWLVISSTHGAGDIPDNLSPFYEALQEQKPDLSAVRFGAIGIGSREYDTFCGAIDKLEAELKNSGAKQTGETLKINILDHDIPEDPAEEWLGSWVNLLK | 3.22 ± 0.1 | 2.99 | 3.47 ± 0.17 | 2.78 ± 0.15 | 4.66 ± 0.56 | 9.28 ± 2 | 2.67 ± 0.13 | 5.07 ± 0.09 | 9.52 ± 0.099 | 2.93 ± 0.18 | 2.86 ± 0.48 | 3.68 ± 0.24
6 | MIKRVLVVSMVGLSLVGCVNNDTLSGDVYTASEAKQVQNVSYGTIVNVRPVQIQGGDDSNVIGAIGGAVLGGFLGNTVGGGTGRSLATAAGAVAGGVAGQGVQSAMNKTQGVELEIRKDDGNTIMVVQKQGNTRFSPGQRVVLASNGSQVTVSPR [P0A905] | 5.26 ± 0.26 | 5.83 ± 0.096 | 6.23 ± 0.85 | 6.1 ± 0.32 | 5.41 ± 0.79 | 9.39 ± 0.33 | 5.49 ± 0.094 | 5.87 ± 0.41 | 11.5 ± 0.73 | 6.11 ± 0.62 | 2.899 ± 0.023 | 11.5 ± 0.94
7 | MKKKRPVLQDVADRVGVTKMTVSRFLRNPEQVSVALRGKIAAALDELGYIPNRAPDILSNATSRAIGVLLPSLTNQVFAEVLRGIESVTDAHGYQTMLAHYGYKPEMEQERLESMLSWNIDGLILTERTHTPRTLKMIEVAGIPVVELMDSKSPCLDIAVGFDNFEAARQMTTAIIARGHRHIAYLGARLDERTIIKQKGYEQAMLDAGLVPYSVMVEQSSSYSSGIELIRQARREYPQLDGVFCTNDDLAVGAAFECQRLGLKVPDDMAIAGFHGHDIGQVMEPRLASVLTPRERMGSIGAERLLARIRGESVTPKMLDLGFTLSPGGSI [P0ACP5] | 6.42 ± 0.18 |  | 5.99 ± 1 | 5.75 ± 0.31 | 6.6 ± 0.52 |  | 6.14 ± 0.46 |  | > 16 | 5.79 ± 0.47 | > 4 | 14.4 ± 1.9
8 | MKYQLTALEARVIGCLLEKQVTTPEQYPLSVNGVVTACNQKTNREPVMNLSESEVQEQLDNLVKRHYLRTVSGFGNRVTKYEQRFCNSEFGDLKLSAAEVALITTLLLRGAQTPGELRSRAARMYEFSDMAEVESTLEQLANREDGPFVVRLAREPGKRENRYMHLFSGEVEDQPAVTDMSNAVDGDLQARVEALEIEVAELKQRLDSLLAHLGD |  | 5.48 ± 0.32 | 6.75 ± 0.25 | 5.16 ± 0.098 | 6.003 ± 0.036 | 9.65 ± 0.61 | 4.69 ± 0.64 | 5.38 ± 0.72 | 12.8 ± 1.3 | 6.03 ± 0.02 | 3.01 ± 0.35 | 10.6 ± 0.71
9 | MSKVRLAIIGNGMVGHRFIEDLLDKSDAANFDITVFCEEPRIAYDRVHLSSYFSHHTAEELSLVREGFYEKHGIKVLVGERAITINRQEKVIHSSAGRTVFYDKLIMATGSYPWIPPIKGSDTQDCFVYRTIEDLNAIESCARRSKRGAVVGGGLLGLEAAGALKNLGIETHVIEFAPMLMAEQLDQMGGEQLRRKIESMGVRVHTSKNTLEIVQEGVEARKTMRFADGSELEVDFIVFSTGIRPRDKLATQCGLDVAPRGGIVINDSCQTSDPDIYAIGECASWNNRVFGLVAPGYKMAQVAVDHILGSENAFEGADLSAKLKLLGVDVGGIGDAHGRTPGARSYVYLDESKEIYKRLIVSEDNKTLLGAVLVGDTSDYGNLLQLVLNAIELPENPDSLILPAHSGSGKPSIGVDKLPDSAQICSCFDVTKGDLIAAINKGCHTVAALKAETKAGTGCGGCIPLVTQVLNAELAKQGIEVNNNLCEHFAYSRQELFHLIRVEGIKTFEELLAKHGKGYGCEVCKPTVGSLLASCWNEYILKPEHTPLQDSNDNFLANIQKDGTYSVIPRSPGGEITPEGLMAVGRIAREFNLYTKITGSQRLAMFGAQKDDLPEIWRQLIEAGFETGHAYAKALRMAKTCVGSTWCRYGVGDSVGLGVELENRYKGIRTPHKMKFGVSGCTRECSEAQGKDVGIIATEKGWNLYVCGNGGMKPRHADLLAADIDRETLIKYLDRFMMFYIRTADKLTRTAPWLENLEGGIDYLKAVIIDDKLGLNAHLEEEMARLREAVLCEWTETVNTPSAQTRFKHFINSDKRDPNVQMVPEREQHRPATPYERIPVTLVEDNA | 6.11 | 5.71 |  |  |  |  |  |  |  |  |  | 6.72
10 | MSGLPLISRRRLLTAMALSPLLWQMNTAHAAAIDPNRIVALEWLPVELLLALGIVPYGVADTINYRLWVSEPPLPDSVIDVGLRTEPNLELLTEMKPSFMVWSAGYGPSPEMLARIAPGRGFNFSDGKQPLAMARKSLTEMADLLNLQSAAETHLAQYEDFIRSMKPRFVKRGARPLLLTTLIDPRHMLVFGPNSLFQEILDEYGIPNAWQGETNFWGSTAVSIDRLAAYKDVDVLCFDHDNSKDMDALMATPLWQAMPFVRAGRFQRVPAVWFYGATLSAMHFVRVLDNAIGGKA |  |  | 6.51 ± 1.4 | 3.92 ± 1.1 | 5.86 | 12.2 | 5.85 |  |  | 6.62 | 2.71 | 12 ± 1.3
11 | MRVLGIETSCDETGIAIYDDEKGLLANQLYSQVKLHADYGGVVPELASRDHVRKTVPLIQAALKESGLTAKDIDAVAYTAGPGLVGALLVGATVGRSLAFAWDVPAIPVHHMEGHLLAPMLEDNPPEFPFVALLVSGGHTQLISVTGIGQYELLGESIDDAAGEAFDKTAKLLGLDYPGGPLLSKMAAQGTAGRFVFPRPMTDRPGLDFSFSGLKTFAANTIRDNGTDDQTRADIARAFEDAVVDTLMIKCKRALDQTGFKRLVMAGGVSANRTLRAKLAEMMKKRRGEVFYARPEFCTDNGAMIAYAGMVRFKAGATADLGVSVRPRWPLAELPAA | 4.38 ± 0.12 | 3 ± 0.72 | 4.84 ± 1.2 | 3.17 ± 0.33 | 4.72 ± 0.64 | 7.77 ± 1.6 | 3.33 ± 0.5 | 4.07 ± 0.11 | 8.07 ± 0.76 | 3.73 ± 1.1 | 2.618 ± 0.021 | 4.16 ± 0.42
12 | MMEQSLIPQTPVLPLTAQRTVKRALTLLDRHLRETGVAFTSTQAARDWLKLKMAGLEREEFMMLYLNQQNQLIAHETLFAGSISSTEVHPREVVKRALYFNAAAVILAHNHPSGDTTPSQADKTITQRLVQALQLVDIRVPDHLIVGGRQIYSFAEHGLL |  |  |  |  |  |  |  |  | 10.4 |  |  | 8.33
